Measured values as given in patent US7901879B2, “Lactoferrin in the treatment of malignant neoplasms and other hyperproliferative diseases” (Agennix Incorporated, priority 2002, dated 2011).

Assays:
[1] = test system: murine squamous carcinoma cell line (SCCVII); assay: SCCVII floor-of-mouth tumor growth, oral rhLF and/or cisplatin (Example 6); assay type: in vivo, immunocompetent C3H mice; details: rhLF alone 200 mg/kg oral once daily days 5-12
Protocol: A murine squamous carcinoma cell line (SCCVII) was injected into the floor of the mouth through the neck skin of immunocompetent C3H mice (Day 0). […] Tumors were measured in three dimensions with calipers.
Tumor-bearing mice were randomized into a control group and seven groups receiving rhLF and/or cisplatin. RhLF (4 mg; 200 mg/Kg) was administered once daily by oral gavage for 8 days on days 5 through 12. Cisplatin was administered as a single dose of 5 mg/Kg given intraperitoneally either at the start of rhLF (day 5), in the middle (day 8) or at the end (day 12) of rhLF therapy. Animals were sacrificed on day 12 post-implantation and the residual tumor masses were measured and processed for later additional analyses.

[2] = test system: murine squamous carcinoma cell line (SCCVII); assay: SCCVII tumor growth, oral rhLF and/or radiotherapy (Example 9); assay type: in vivo, immunocompetent C3H mice
Protocol: A murine squamous carcinoma cell line (SCCVII) was injected into the floor of mouth through the neck skin of immunocompetent C3H mice (Day 0). […] Tumors were measured in three dimensions with calipers.
Tumor-bearing mice were randomized into six groups receiving rhLF (200 mg/Kg) and/or radiotherapy as described below. RhLF (4 mg; 200 mg/kg) was administered by oral gavage once daily for 8 days on days 5 through 12. Radiotherapy was administered as single dose of 2 Gray given at the beginning (day 5) or at during (day 8) rhLF-therapy. Animals were sacrificed on day 14 post-treatment and the residual tumor masses were measured and processed for later additional analyses.

GM-CSF = GM-CSF production in small intestine after oral rhLF (ELISA); assay type: in vivo, mice; details: oral 300 mg/kg/day three days
Protocol: Recombinant human lactoferrin or placebo were orally administered to mice, and the production of GM-CSF in the small intestine was measured.
Mice (5 animals per group) were treated for three days daily with 300 mg/kg/day of rhLF. For a control, mice were only administered the pharmaceutical carrier. Twenty-four hours following administration of the LF or placebo for 3 days, animals were and the small intestinal tissue was removed for further analysis. Small intestinal epithelium was homogenized using a lysis buffer consisting of PBS, 1% Nonidet P-40, 0.5% sodium deoxycholate, and 0.1% sodium dodecyl sulphate containing 10 μg/ml PhenylMetheylsulfonyl fluoride. Homogenate was centrifuged at 15,000 rpm for 10 minutes and the supernatant stored at −80 C. till it was tested for GM-CSF levels using an ELISA kit.

B1: Recombinant human lactoferrin (protein, UniProt P02788 20-710, looked up)
Lactotransferrin: GRRRSVQWCAVSQPEATKCFQWQRNMRKVRGPPVSCIKRDSPIQCIQAIAENRADAVTLDGGFIYEAGLAPYKLRPVAAEVYGTERQPRTHYYAVAVVKKGGSFQLNELQGLKSCHTGLRRTAGWNVPIGTLRPFLNWTGPPEPIEAAVARFFSASCVPGADKGQFPNLCRLCAGTGENKCAFSSQEPYFSYSGAFKCLRDGAGDVAFIRESTVFEDLSDEAERDEYELLCPDNTRKPVDKFKDCHLARVPSHAVVARSVNGKEDAIWNLLRQAQEKFGKDKSPKFQLFGSPSGQKDLLFKDSAIGFSRVPPRIDSGLYLGSGYFTAIQNLRKSEEEVAARRARVVWCAVGEQELRKCNQWSGLSEGSVTCSSASTTEDCIALVLKGEADAMSLDGGYVYTAGKCGLVPVLAENYKSQQSSDPDPNCVDRPVEGYLAVAVVRRSDTSLTWNSVKGKKSCHTAVDRTAGWNIPMGLLFNQTGSCKFDEYFSQSCAPGSDPRSNLCALCIGDEQGENKCVPNSNERYYGYTGAFRCLAENAGDVAFVKDVTVLQNTDGNNNEAWAKDLKLADFALLCLDGKRKPVTEARSCHLAMAPNHAVVSRMDKVERLKQVLLHQQAKFGRNGSDCPDKFCLFQSETKNLLFNDNTECLARLHGKTTYEKYLGPQYVAGITNLKKCSTSPLLEACEFLRK
notes: human lactoferrin produced recombinantly
- TGI (%) Relative to Placebo [1]: 33%
- Inhibition Relative to Placebo ([2]; both rhLF/Rad groups pooled (D/F)): 67%
- Inhibition Relative to Placebo ([2]; rhLF 200 mg/kg oral days 5-12 plus radiation 2 Gray on day 5): 68%
- Inhibition Relative to Placebo ([2]; rhLF 200 mg/kg oral days 5-12 plus radiation 2 Gray on day 8): 66%
- Inhibition Relative to Placebo ([2]; rhLF alone 200 mg/kg oral once daily days 5-12): 54%
- increase in TGI over monotherapy with rhLF ([2]; rhLF plus radiation, P<0.05): 28%
- increase in TGI over monotherapy with radiation ([2]; rhLF plus radiation, P=0.1207): 15%
- GM-CSF Mean (SEM) (GM-CSF; 24 h after last dose): 7.74 (0.19) pg
- GM-CSF Increase over Placebo (GM-CSF; p < 0.01): 19.4% (p < 0.01)
